Assay [1] addresses T1, full length cynomolgus monkey 5T4 on transfected HEK-293 cells (cynomolgus monkey, UniProt Q4R8Y9 35-420).
T1 construct: Uniprot Q4R8Y9; residues 1-34 are the signal peptide; also called cynomolgus 5T4
T1 sequence: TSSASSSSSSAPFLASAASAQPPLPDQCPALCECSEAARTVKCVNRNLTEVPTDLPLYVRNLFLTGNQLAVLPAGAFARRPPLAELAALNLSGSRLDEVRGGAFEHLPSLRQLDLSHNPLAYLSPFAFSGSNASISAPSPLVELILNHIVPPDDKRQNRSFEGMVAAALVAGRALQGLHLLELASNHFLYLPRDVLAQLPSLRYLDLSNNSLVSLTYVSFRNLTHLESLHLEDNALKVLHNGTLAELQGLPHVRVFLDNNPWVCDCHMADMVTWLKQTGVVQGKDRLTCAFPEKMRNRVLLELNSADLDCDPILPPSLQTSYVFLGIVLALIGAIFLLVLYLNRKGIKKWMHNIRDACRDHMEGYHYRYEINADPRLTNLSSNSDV
The assay is described as follows: flow cytometry, HEK-293 cells transfected with cynomolgus monkey 5T4, PE secondary [II)I]. On the technique in general: A flow cytometer gives signals particle by particle.

Assay [2] addresses T2, full length human 5T4 (SEQ ID NO: 1) on cells (human, UniProt Q13641 32-420).
T2 construct: Uniprot Q13641; residues 1-31 are the signal peptide; Used both for transfected HEK-293 cells and for 5T4-expressing human tumor cell lines
T2 sequence: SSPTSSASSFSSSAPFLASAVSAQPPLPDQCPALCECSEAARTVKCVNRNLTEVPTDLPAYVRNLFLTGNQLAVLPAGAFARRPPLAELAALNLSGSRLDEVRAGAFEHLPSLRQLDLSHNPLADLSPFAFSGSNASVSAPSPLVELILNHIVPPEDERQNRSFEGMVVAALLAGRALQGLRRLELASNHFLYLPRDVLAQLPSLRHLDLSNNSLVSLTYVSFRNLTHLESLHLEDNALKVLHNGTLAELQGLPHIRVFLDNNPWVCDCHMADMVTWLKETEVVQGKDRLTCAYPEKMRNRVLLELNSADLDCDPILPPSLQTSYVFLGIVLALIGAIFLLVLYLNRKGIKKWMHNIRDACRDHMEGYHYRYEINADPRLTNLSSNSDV
The assay is described as follows: flow cytometry, HeLa cells, PE secondary [II)H].

For assay [3], the target named is T3, human 5T4ECDHis (mature protein of SEQ ID NO: 99) (human, UniProt Q13641 32-355).
T3 construct: ECD of human 5T4 (aa 1-355 of Uniprot Q13641) with C-terminal His tag; residues 1-31 are the signal peptide; also called ECD of human 5T4 with a C-terminal His tag
T3 sequence: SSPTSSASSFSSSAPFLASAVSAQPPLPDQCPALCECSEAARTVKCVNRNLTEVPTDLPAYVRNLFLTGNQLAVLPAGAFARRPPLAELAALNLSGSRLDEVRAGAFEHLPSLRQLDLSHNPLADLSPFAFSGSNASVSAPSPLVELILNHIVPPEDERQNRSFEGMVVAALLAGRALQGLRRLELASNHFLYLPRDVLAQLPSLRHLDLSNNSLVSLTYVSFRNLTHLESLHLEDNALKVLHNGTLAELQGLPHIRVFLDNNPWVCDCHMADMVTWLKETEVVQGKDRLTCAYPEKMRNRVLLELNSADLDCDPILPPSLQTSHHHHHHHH
The experiment in a line: BLI cross-block; competitor (immobilised): IgG1-5T4-A3-F405L.

Assay [4] deals with T3, human 5T4ECDHis (mature protein of SEQ …). The assay is described as follows: BLI cross-block; competitor (immobilised): IgG1-5T4-H8-FEAR.
For assay [5] the target is unchanged. The experiment in a line: BLI cross-block; competitor (immobilised): IgG1-5T4-085-FEAR.
For assay [6] the target is unchanged. The assay is described as follows: BLI cross-block; competitor (immobilised): IgG1-5T4-A1-F405L.
Assay [7] shares this target. The assay is described as follows: BLI cross-block; competitor (immobilised): IgG1-5T4-106-FEAR.
For assay [8] the target is unchanged. The assay is described as follows: BLI cross-block; competitor (immobilised): IgG1-5T4-076-FEAR.
For assay [9] the target is unchanged. The assay is described as follows: BLI cross-block; competitor (immobilised): IgG1-5T4-127-FEAR.
Assay [10] shares this target. The assay is described as follows: BLI cross-block; competitor (immobilised): IgG1-5T4-059-FEAR.
For assay [11] the target is unchanged. The assay is described as follows: BLI cross-block; competitor (immobilised): IgG1-5T4-226-FEAR.
Assay [12] shares this target. The experiment in a line: BLI cross-block; competitor (immobilised): IgG1-5T4-207-FEAR.
Assay [13] shares this target. The assay is described as follows: BLI, antibody on anti-human IgG Fc Capture biosensor, antigen in solution. On the technique in general: Biolayer interferometry detects binding as a change in optical thickness at a sensor tip.
Assay [14] addresses T2, full length human 5T4 (SEQ ID NO: 1) on …. The assay is described as follows: flow cytometry, HEK-293 cells transfected with human 5T4, FITC secondary [I)D].
The target is the same in assay [15]. The assay is described as follows: flow cytometry, HEK-293 cells transfected with human 5T4, PE secondary [II)E].
Assay [16] deals with T1, full length cynomolgus monkey 5T4 on …. The experiment in a line: flow cytometry, HEK-293 cells transfected with cynomolgus monkey 5T4, PE secondary [II)E].

The source of these data is US20230257479A1 (Genmab, published 2023).

B1: bsIgG1-huCD3-H101G-FEALx5T4-A3-FEAR (bispecific antibody)
heavy: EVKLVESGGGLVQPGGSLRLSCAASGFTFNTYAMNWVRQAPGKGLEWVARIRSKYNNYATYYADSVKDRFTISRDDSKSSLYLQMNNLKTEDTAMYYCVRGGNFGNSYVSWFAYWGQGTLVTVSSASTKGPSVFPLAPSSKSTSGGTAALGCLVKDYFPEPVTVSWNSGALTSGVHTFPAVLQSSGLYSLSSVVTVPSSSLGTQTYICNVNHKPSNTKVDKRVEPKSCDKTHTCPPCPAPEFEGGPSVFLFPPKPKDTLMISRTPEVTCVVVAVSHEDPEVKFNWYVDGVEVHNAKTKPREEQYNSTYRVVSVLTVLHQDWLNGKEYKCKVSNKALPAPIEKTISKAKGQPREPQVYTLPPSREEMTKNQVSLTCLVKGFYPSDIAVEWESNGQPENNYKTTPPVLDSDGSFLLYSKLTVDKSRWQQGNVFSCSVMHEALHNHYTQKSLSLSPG
light: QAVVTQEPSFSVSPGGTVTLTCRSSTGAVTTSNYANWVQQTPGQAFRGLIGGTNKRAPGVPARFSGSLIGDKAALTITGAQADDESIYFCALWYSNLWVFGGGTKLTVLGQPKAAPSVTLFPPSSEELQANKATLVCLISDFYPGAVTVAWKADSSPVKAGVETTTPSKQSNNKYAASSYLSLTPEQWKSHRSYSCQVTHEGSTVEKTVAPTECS
VH: EVQLVESGGGLVQPKGSLKLSCAASGFTFNTYAMNWVRQAPGKGLEWVARIRSKSNNYATYYADSVKDRFTISRDDSQSMLYLQMNNLKTEDTAMYYCVRQWDYDVRAMNYWGQGTSVTVSS
VL: DIVMTQSHIFMSTSVGDRVSITCKASQDVDTAVAWYQQKPGQSPKLLIYWASTRLTGVPDRFTGSGSGTDFTLTISNVQSEDLADYFCQQYSSYPYTFGGGTKLEIK
notes: Fab-arm exchange product
In the case of B1, the binding result in assay [1] and in [2] was “binds” each time.

B2: IgG1-5T4-A3-F405L (antibody, V domains shown)
VH: EVQLVESGGGLVQPKGSLKLSCAASGFTFNTYAMNWVRQAPGKGLEWVARIRSKSNNYATYYADSVKDRFTISRDDSQSMLYLQMNNLKTEDTAMYYCVRQWDYDVRAMNYWGQGTSVTVSS
VL: DIVMTQSHIFMSTSVGDRVSITCKASQDVDTAVAWYQQKPGQSPKLLIYWASTRLTGVPDRFTGSGSGTDFTLTISNVQSEDLADYFCQQYSSYPYTFGGGTKLEIK
notes: Variable region of A3 of WO2007106744 in a human IgG1 backbone with F405L; also called surrogate A3 antibody
Regarding B2, the corrected association response in assay [3] is 0.01 nm; in assay [4], 0.49 nm; in [5] it was -0.01 nm; in assay [6], 0.76 nm; in assay [7] it was 0.56 nm; in assay [8] it was 0 nm. The corrected association response in assay [9] is -0.01 nm.

B3: IgG1-5T4-A3-FEAR (antibody, V domains shown)
VH: EVQLVESGGGLVQPKGSLKLSCAASGFTFNTYAMNWVRQAPGKGLEWVARIRSKSNNYATYYADSVKDRFTISRDDSQSMLYLQMNNLKTEDTAMYYCVRQWDYDVRAMNYWGQGTSVTVSS
VL: DIVMTQSHIFMSTSVGDRVSITCKASQDVDTAVAWYQQKPGQSPKLLIYWASTRLTGVPDRFTGSGSGTDFTLTISNVQSEDLADYFCQQYSSYPYTFGGGTKLEIK
notes: Based on A3 from Wyeth; IgG1 with L234F, L235E, D265A, K409R (FEAR)
For B3, the EC50 (read off the curve) (commonly the concentration at which the effect is half-maximal) in assay [1] was ~0.1 µg/mL. Moreover, in assay [2], the binding result is “binds”.

B4: IgG1-5T4-A1-F405L (antibody, V domains shown)
VH: QIQLVQSGPELKKPGETVKISCKASGYTFTNFGMNWVKQGPGEGLKWMGWINTNTGEPRYAEEFKGRFAFSLETTASTAYLQINNLKNEDTATYFCARDWDGAYFFDYWGQGTTLTVSS
VL: SIVMTQTPKFLLVSAGDRVTITCKASQSVSNDVAWYQQKPGQSPKLLINFATNRYTGVPNRFTGSGYGTDFTFTISTVQAEDLALYFCQQDYSSPWTFGGGTKLEIK
notes: Variable region of A1 of WO2007106744 in a human IgG1 backbone with F405L; also called surrogate A1 antibody
Consider B4, for which the corrected association response was 0.69 nm in [3]; 0.64 nm in assay [4]; 0.07 nm in assay [5]; -0.01 nm in assay [6]; 0.79 nm in assay [7]; 0.04 nm in assay [8]. In addition, the corrected association response in assay [10] was 0.96 nm; in assay [11], 1.56 nm; in [9] it was 0.15 nm; in assay [12], 1.29 nm.

B5: IgG1-5T4-H8-FEAR (antibody, V domains shown)
VH: EVQLQQSGPDLVKPGASVKISCKASGYSFTGYYMHWVKQSHGKSLEWIGRINPNNGVTLYNQKFKDKAILTVDKSSTTAYMELRSLTSEDSAVYYCARSTMITNYVMDYWGQVTSVTVSS
VL: SIVMTQTPTFLLVSAGDRVTITCKASQSVSNDVAWYQQKPGQSPTLLISYTSSRYAGVPDRFIGSGYGTDFTFTISTLQAEDLAVYFCQQDYNSPPTFGGGTKLEIK
notes: Based on 5T4 antibody H8 from Wyeth (WO 2007/106744); IgG1 with L234F, L235E, D265A, K409R (FEAR); also called IgG1-5T4-HS-FEAR; IgG1-5T4-H8-FEAR-FITC
On to B5, for which the corrected association response was 0.5 nm in assay [3]; 0 nm in assay [4]; -0.01 nm in assay [5]; 0.89 nm in assay [6]; -0.02 nm in assay [7]; 0 nm in [8]. Besides, the corrected association response in assay [10] is 0.01 nm; in [11], -0.01 nm; in [9], -0.02 nm; in assay [12], -0.01 nm. Also, in assay [13], the Kd – broadly, the free concentration of one partner at which half of the binding sites on the other are occupied at equilibrium, for simple one-to-one binding – came to 1.3 nM. Further, the koff (in general, the rate constant with which the complex falls apart) in [13] amounted to 0.00029 s⁻¹. Further, in assay [13], the kon (in general, a measure of how fast the partners come together) was determined as 220000 M⁻¹ s⁻¹. Moreover, the “EC50 (read off the curve)” value in [14] is ~0.1 µg/mL.

B6: bsIgG1-huCD3-H101G-FEALx5T4-076-FEAR (bispecific antibody)
heavy: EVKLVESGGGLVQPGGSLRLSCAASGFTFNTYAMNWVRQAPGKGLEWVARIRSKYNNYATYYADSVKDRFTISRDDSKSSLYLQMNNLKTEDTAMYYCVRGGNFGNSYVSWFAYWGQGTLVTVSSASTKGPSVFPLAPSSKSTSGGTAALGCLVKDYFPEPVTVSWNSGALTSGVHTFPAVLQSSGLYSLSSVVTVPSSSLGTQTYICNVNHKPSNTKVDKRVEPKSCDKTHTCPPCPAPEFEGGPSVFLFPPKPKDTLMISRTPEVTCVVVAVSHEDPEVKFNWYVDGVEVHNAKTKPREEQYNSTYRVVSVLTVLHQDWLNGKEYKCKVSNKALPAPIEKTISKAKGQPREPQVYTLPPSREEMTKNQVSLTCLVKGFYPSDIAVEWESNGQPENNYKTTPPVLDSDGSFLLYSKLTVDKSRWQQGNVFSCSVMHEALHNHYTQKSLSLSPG
light: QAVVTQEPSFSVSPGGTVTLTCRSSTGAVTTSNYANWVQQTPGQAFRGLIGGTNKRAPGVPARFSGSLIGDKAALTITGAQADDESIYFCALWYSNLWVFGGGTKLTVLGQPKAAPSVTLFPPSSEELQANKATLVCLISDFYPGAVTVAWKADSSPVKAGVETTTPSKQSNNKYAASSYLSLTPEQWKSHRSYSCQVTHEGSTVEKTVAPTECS
VH: QVQLVQSGAEVKKPGASVKVSCKASGYTFTSYGISWVRQAPGQGLEWMGWISAYNGNTNYAQKLQGRVTMTTDTSTRTAYMELRSLRSDDTAVYYCARDPGYFDWLYGDYWGQGTLVTVSS
VL: AIQLTQSPSSLSASVGDRVTITCRASQGISSALAWYQQKPGKAPKLLIYDASSLESGVPSRFSGSGSGTDFTLTISSLQPEDFATYYCQQFNSYPRTFGQGTKVEIK
notes: Fab-arm exchange product
On to B6, for which the binding result in [15] is on record as “binds”. Further, in assay [16], the concentration giving a half-maximal response (EC50 (read off the curve)) is ~0.4 µg/mL.

B7: IgG1-5T4-076-FEAR (antibody, V domains shown)
VH: QVQLVQSGAEVKKPGASVKVSCKASGYTFTSYGISWVRQAPGQGLEWMGWISAYNGNTNYAQKLQGRVTMTTDTSTRTAYMELRSLRSDDTAVYYCARDPGYFDWLYGDYWGQGTLVTVSS
VL: AIQLTQSPSSLSASVGDRVTITCRASQGISSALAWYQQKPGKAPKLLIYDASSLESGVPSRFSGSGSGTDFTLTISSLQPEDFATYYCQQFNSYPRTFGQGTKVEIK
notes: Monospecific, bivalent human IgG1 kappa with L234F, L235E, D265A, K409R (FEAR)
For the molecule B7, the corrected association response in [3] is 0 nm; in [4], -0.02 nm; in assay [5] it was -0.01 nm; in assay [6] it was 0.36 nm; in assay [7], -0.03 nm; in assay [8], -0.01 nm. Further, the corrected association response in assay [10] is 0 nm; in assay [11], 1.47 nm; in [9], -0.02 nm; in assay [12], 1.22 nm. For the same molecule, the “EC50 (read off the curve)” value in [15] was ~0.3 µg/mL; in assay [16], ~0.008 µg/mL.
